Biological target: aMh-FcG2a, nanobody aMh fused with the Fc domain of mouse IgG2a (Camelus bactrianus | camel | mouse)
Experiment: SPR; Biacore 3000; aMh-Fc captured by anti-mouse IgG immobilised on a CM5 chip; antigen flowed at 5.95-595 nM; 25°C, HBS-EP pH 7.4, 30 μl/min; 1:1 fitting

Sequence of aMh-FcG2a, nanobody aMh fused with the Fc domain of mouse IgG2a (Camelus bactrianus | camel | mouse) (heavy, as listed by the source): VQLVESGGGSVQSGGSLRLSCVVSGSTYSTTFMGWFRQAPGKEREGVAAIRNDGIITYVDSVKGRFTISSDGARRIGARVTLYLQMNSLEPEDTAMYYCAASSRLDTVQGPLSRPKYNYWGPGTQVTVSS

Kd: 5.94 nM
koff: 0.000106 s⁻¹
kon: 17800 M⁻¹ s⁻¹
Substance: ABC transporter substrate binding protein (MH3620) of Mycoplasma hominis (natural protein)

— article PMC4786110
